Results as given in article PMC314469, “Protein Interaction Networks by Proteome Peptide Scanning” (PLoS Biology, 2004).

T1: Boi1 SH3 (BOI1_YEAST), P38041
T1 chain: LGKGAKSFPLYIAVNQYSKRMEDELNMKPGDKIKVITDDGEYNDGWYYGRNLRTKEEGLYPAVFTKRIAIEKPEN

T2: Rvs167 SH3 (RV167_YEAST), P39743
T2 chain: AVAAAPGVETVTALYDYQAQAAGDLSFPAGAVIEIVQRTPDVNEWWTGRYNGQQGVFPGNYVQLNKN

T3: Yfr024 SH3 (LSB3_YEAST), P43603
T3 chain: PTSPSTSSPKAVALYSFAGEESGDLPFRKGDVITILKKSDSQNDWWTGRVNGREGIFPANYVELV

T4: Boi2 SH3 (BOI2_YEAST), P39969
T4 chain: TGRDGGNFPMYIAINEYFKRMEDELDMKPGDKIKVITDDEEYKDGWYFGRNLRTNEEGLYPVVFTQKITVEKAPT

T5: Yhr016c SH3 (YSC84_YEAST), P32793
T5 chain: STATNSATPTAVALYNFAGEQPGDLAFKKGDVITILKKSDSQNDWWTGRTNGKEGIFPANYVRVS


Assays:
Assay in all cases: SPOT array
[1] = target: T1, Boi1 SH3 (BOI1_YEAST), P38041
[2] = target: T2, Rvs167 SH3 (RV167_YEAST), P39743
[3] = target: T3, Yfr024 SH3 (LSB3_YEAST), P43603
[4] = target: T4, Boi2 SH3 (BOI2_YEAST), P39969
[5] = target: T5, Yhr016c SH3 (YSC84_YEAST), P32793

Binder | normalised SPOT signal, Boehringer light units (BLU); mean over the file's lines of this peptide [1] | normalised SPOT signal, Boehringer light units (BLU); mean over the file's lines of this peptide [2] | normalised SPOT signal, Boehringer light units (BLU); mean over the file's lines of this peptide [3] | normalised SPOT signal, Boehringer light units (BLU); mean over the file's lines of this peptide [4] | normalised SPOT signal, Boehringer light units (BLU); mean over the file's lines of this peptide [5]
MALPRTPLKTSTEE [YCL009C 276-289] | 100 | 338 | 1130 | 101 | 280
MKAPKMPDKHRDNY [YDL031W 923-936] | 163 | 331 | 1760 | 162 | 399
LSTPSAPAKINNYS [YDR109C 605-618] | 18.3 | 30.6 | 174 | 37.9 | 144
LTSPKNPIKSVTKF [YDR172W 569-582] | 547 | 96.1 | 227 | 25.9 | 40.3
LTLPFGPVKSIWLS [YGR227W 189-202] | 5.9 | 17.2 | 36.6 | 41.5 | 297
MEYPFKPPKMQFDT [YDR177W 60-73] | 56.3 | 68.7 | 483 | 55.1 | 178
LVQPVVPDKVFSFR [YER036C 368-381] | 124 | 63.5 | 311 | 52 | 370
LSSPSLPPKVNATN [YEL042W 325-338] | 113 | 34.7 | 3210 | 22 | 92.2
LVTPEEPAKNKSER [YDL129W 13-26] | 126 | 78.8 | 49.1 | 74.6 | 69.6
MSLPVTPVKSKVSS [YER032W 50-63] | 0.6 | 111 | 2120 | 37.9 | 257

Next, values leading:

normalised SPOT signal, Boehringer light units (BLU); mean over the file's lines of this peptide [1] | normalised SPOT signal, Boehringer light units (BLU); mean over the file's lines of this peptide [2] | normalised SPOT signal, Boehringer light units (BLU); mean over the file's lines of this peptide [3] | normalised SPOT signal, Boehringer light units (BLU); mean over the file's lines of this peptide [4] | normalised SPOT signal, Boehringer light units (BLU); mean over the file's lines of this peptide [5] | Binder
74.2 | 19.9 | 48.9 | 64.8 | 105 | MSEPEVPFKVVAQF [YJL020C 1-14]
188 | 8.1 | 82.2 | 33.7 | 149 | LTSPFEPPKPKTKH [YJR064W 272-285]
49.2 | 0.8 | 179 | 51.5 | 139 | LWQPVDPSREDLVI [YLR301W 128-141]
81.1 | 261 | 1240 | 168 | 1100 | MRAPPSPRKSKSGH [YOR255W 1-14]
63.1 | 36.6 | 561 | 25.2 | 200 | LWIPDDPSKARFLS [YJR152W 267-280]
34.7 | 70.8 | 1090 | 59.7 | 423 | MLIPNFPNKKLKLN [YHR086W 128-141]
94.8 | 32.2 | 627 | 37.5 | 95.7 | LVIPSTPSKKSKYS [YOR315W 23-36]
84.2 | 52.4 | 4570 | 40.6 | 279 | MAAPPVPPKQSQED [YPL084W 790-803]
2850 | 1270 | 15900 | 651 | 13800 | MQGPKIPWRSGRVD [YKR066C 186-199]
13.5 | 11 | 288 | 55 | 66.7 | MPTPMTPVKVGALA [YNL040W 1-14]
25.6 | 34.7 | 899 | 60.6 | 326 | LYKPGMPPRPHFIT [YNL045W 494-507]
52.4 | 44.1 | 94.6 | 48.3 | 107 | LVQPNVPEKHNMST [YHL002W 144-157]
